The target of series [1] is T1, FLC-1 (FRI-like carbapenemase-1) (Enterobacter cloacae, UniProt A0A2I5JVQ1).
T1 construct: gene bla; plasmid p3442-FLC-1 gene cloned in pBAD-FLC, expressed in E. coli LMG194; unpurified soluble (cytoplasmic) fraction; about 33 kDa
Briefly: nitrocefin hydrolysis inhibition. In kind it is biochemical. Here is the method: nitrocefin hydrolysis inhibition on FLC-1 (FRI-like carbapenemase-1) | the inhibition of FLC-1 enzymatic activity by clavulanic acid was tested

Series [2] has as its system CO/N=C(\C(=O)N[C@@H]1C(=O)N2C(C(=O)O)=C(COC(C)=O)CS[C@H]12)c1csc(N)n1. The experiment in a line: cells, lysate or membranes. Format: biochemical, Enterobacter cloacae. The following applies: PBS, 0.01% Triton X-100, pH 7.4, 23°C, cytoplasmic fraction of E. coli LMG194 producing FLC-1.
Series [3] deals with CC1(C)S[C@@H]2[C@H](NC(=O)[C@H](N)c3ccccc3)C(=O)N2[C@H]1C(=O)O. The experiment in a line: cells, lysate or membranes. Format: biochemical, Enterobacter cloacae. Conditions: PBS, 0.01% Triton X-100, pH 7.4, 23°C, cytoplasmic fraction of E. coli LMG194 producing FLC-1.
Series [4] deals with C[C@@H](O)[C@H]1C(=O)N2C(C(=O)O)=C(S[C@@H]3CN[C@H](C(=O)Nc4cccc(C(=O)O)c4)C3)[C@H](C)[C@H]12. The experiment in a line: cells, lysate or membranes. The following applies: PBS, 0.01% Triton X-100, pH 7.4, 23°C, cytoplasmic fraction of E. coli LMG194 producing FLC-1. In kind it is biochemical, Enterobacter cloacae.
Series [5] concerns C[C@@H](O)[C@H]1C(=O)N2C(C(=O)O)=C(S[C@@H]3CN[C@H](C(=O)N(C)C)C3)[C@H](C)[C@H]12. The experiment in a line: cells, lysate or membranes. Format: biochemical, Enterobacter cloacae. The following applies: PBS, 0.01% Triton X-100, pH 7.4, 23°C, cytoplasmic fraction of E. coli LMG194 producing FLC-1.
Series [6] concerns C[C@@H](O)[C@H]1C(=O)N2C(C(=O)O)=C(SCCN=CN)C[C@H]12. Briefly: cells, lysate or membranes. Format: biochemical, Enterobacter cloacae. Conditions: PBS, 0.01% Triton X-100, pH 7.4, 23°C, cytoplasmic fraction of E. coli LMG194 producing FLC-1.

T1 sequence (A0A2I5JVQ1 entry or part of it): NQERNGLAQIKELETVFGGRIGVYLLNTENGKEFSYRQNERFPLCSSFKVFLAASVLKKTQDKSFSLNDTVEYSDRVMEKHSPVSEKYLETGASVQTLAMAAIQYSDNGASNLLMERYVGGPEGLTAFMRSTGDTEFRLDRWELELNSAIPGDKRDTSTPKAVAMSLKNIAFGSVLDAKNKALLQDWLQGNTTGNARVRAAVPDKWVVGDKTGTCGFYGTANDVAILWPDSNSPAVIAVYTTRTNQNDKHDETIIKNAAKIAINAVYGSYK

For `O=C(O)[C@H]1/C(=C/CO)O[C@@H]2CC(=O)N21` [clavulanic acid], in series [1], the 50% inhibitory concentration (IC50) came to 1970 ± 90 nM.
As for “FLC-1 (FRI-like carbapenemase-1) (Enterobacter cloacae)”, the Km in series [2] was 377.1 ± 110.6 µM; in series [3] it was 1,649 ± 174.2 μM; in series [4] it was 29.6 ± 11.7 µM; in series [5], 32.4 ± 9.3 µM; in series [6], 177.2 ± 12.5 µM.
